Laboratory results as given in patent publication US8148119B2, “Hydroxylase gene and use thereof” (Microbiopharm Japan Co., Ltd., priority 2006, dated 2012).
“Also recorded” adds a separate entry of the source. Like-named read-outs stand apart in the source and are kept apart here.

Assays:
[1] = cited from earlier work
[2] = cited from earlier work; remark: listed apart in the source
[3] = VD3 conversion in reconstituted system (cell-free extract or purified VDH plus redox partner); type: biochemical
[4] = biological target: T1, VDH (Pseudonocardia autotrophica, UniProt C4B644); assay: Reduced-CO difference spectral analysis, VDH expression in Escherichia coli BL21(DE3) transformants
T1 construct: there was no mutation of the VDH gene and the VDH gene was inserted in the designated site; made in house; host or cells: Escherichia coli BL21(DE3), cell-free extract
T1 sequence (C4B644 2-403): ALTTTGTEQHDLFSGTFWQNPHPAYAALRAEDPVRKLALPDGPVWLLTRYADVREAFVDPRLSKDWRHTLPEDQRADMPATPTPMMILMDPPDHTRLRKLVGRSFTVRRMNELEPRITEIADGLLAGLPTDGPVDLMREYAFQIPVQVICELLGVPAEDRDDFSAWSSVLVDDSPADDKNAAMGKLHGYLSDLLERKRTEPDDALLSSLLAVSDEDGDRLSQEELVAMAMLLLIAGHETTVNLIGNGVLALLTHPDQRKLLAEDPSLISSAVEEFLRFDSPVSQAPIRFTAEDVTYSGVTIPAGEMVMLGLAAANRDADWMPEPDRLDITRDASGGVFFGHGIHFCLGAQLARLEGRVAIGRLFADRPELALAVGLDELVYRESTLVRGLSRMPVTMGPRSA
Protocol: First, the cell suspension obtained by the method previously described was subjected to cell disruption at 4° C. using 0.1 mm glass beads by a cell disruptor, Multi-beads shocker (manufactured by Yasui Kikai Corporation). In the cell disruption, ten cycles of 30-second shaking at 2500 rpm and a 30-second break were conducted. The cell-disrupted solution was centrifuged at 12000 rpm for 10 minutes to thereby obtain a cell-free extract. 700 μl of the cell-free extract was transferred into each of two test tubes with caps and carbon monoxide was purged into one of the tubes. Then, a small amount of sodium hydrosulfite was added to the cell-free extract in both of the tubes. Taking the absorption spectrum at from 400 nm to 500 nm of the sample without the purge of carbon monoxide as the baseline level, the absorption spectrum at from 400 to 500 nm of the sample purged with carbon monoxide was scanned using a spectrophotometer (U-3210 SpectrophotoMeter manufactured by HITACHI, Ltd.).
First, the cell suspension of transformed Escherichia coli BL21(DE3)/pVDH-thcCD obtained by the method previously described was subjected to cell disruption at 4° C. using 0.1 mm glass beads by a cell disruptor, Multi-beads shocker (manufactured by Yasui Kikai Corporation). In the cell disruption, ten cycles of 30-second shaking at 2500 rpm and a 30-second break were conducted. […]

B1: Human CYP27A1: human cytochrome P450 known to have hydroxylation activity at 25-position of vitamin D3 (protein, UniProt Q02318 34-531, looked up)
Sterol 26-hydroxylase, …: ALPSDKATGAPGAGPGVRRRQRSLEEIPRLGQLRFFFQLFVQGYALQLHQLQVLYKAKYGPMWMSYLGPQMHVNLASAPLLEQVMRQEGKYPVRNDMELWKEHRDQHDLTYGPFTTEGHHWYQLRQALNQRLLKPAEAALYTDAFNEVIDDFMTRLDQLRAESASGNQVSDMAQLFYYFALEAICYILFEKRIGCLQRSIPEDTVTFVRSIGLMFQNSLYATFLPKWTRPVLPFWKRYLDGWNAIFSFGKKLIDEKLEDMEAQLQAAGPDGIQVSGYLHFLLASGQLSPREAMGSLPELLMAGVDTTSNTLTWALYHLSKDPEIQEALHEEVVGVVPAGQVPQHKDFAHMPLLKAVLKETLRLYPVVPTNSRIIEKEIEVDGFLFPKNTQFVFCHYVVSRDPTAFSEPESFQPHRWLRNSQPATPRIQHPFGSVPFGYGVRACLGRRIAELEMQLLLARLIQKYKVVLAPETGELKSVARIVLVPNKKVGLQFLQRQC
Km ([1]; literature values (Sawada et al.; Uchida et al.), read-out: Km for 25-OH VD3): 3.5 µM
Vmax for 25-OH VD3 ([1]; literature values): 21 mmol/min/mol of P450
Km ([2]; literature values (Sawada et al. 2004), read-out: Km for VD3): 3.2 µM
Vmax for VD3 ([2]; literature values): 270 mmol/min/mol of P450

B2: P450SU-1: cytochrome P450 derived from actinomycete Streptomyces griseolus ATCC 11796, reported to hydroxylate vitamin D3 (protein, UniProt P18326 2-406, looked up)
Vitamin D3 dihydroxylase: TDTATTPQTTDAPAFPSNRSCPYQLPDGYAQLRDTPGPLHRVTLYDGRQAWVVTKHEAARKLLGDPRLSSNRTDDNFPATSPRFEAVRESPQAFIGLDPPEHGTRRRMTISEFTVKRIKGMRPEVEEVVHGFLDEMLAAGPTADLVSQFALPVPSMVICRLLGVPYADHEFFQDASKRLVQSTDAQSALTARNDLAGYLDGLITQFQTEPGAGLVGALVADQLANGEIDREELISTAMLLLIAGHETTASMTSLSVITLLDHPEQYAALRADRSLVPGAVEELLRYLAIADIAGGRVATADIEVEGHLIRAGEGVIVVNSIANRDGTVYEDPDALDIHRSARHHLAFGFGVHQCLGQNLARLELEVILNALMDRVPTLRLAVPVEQLVLRPGTTIQGVNELPVTW
Hydroxylation of vitamin D3 to 25-hydroxy vitamin D3 and of 25-hydroxy vitamin D3 to 1α,25-hydroxy vitamin D3 ([2]; reported by Sawada et al. 2004): weak activity

B3: VDH: hydroxylase of vitamin D or the like from Pseudonocardia autotrophica, cytochrome P450, amino acid sequence ID No. 2 (protein, listed as Pseudonocardia autotrophica)
chain: MALTTTGTEQHDLFSGTFWQNPHPAYAALRAEDPVRKLALPDGPVWLLTRYADVREAFVDPRLSKDWRHTLPEDQRADMPATPTPMMILMDPPDHTRLRKLVGRSFTVRRMNELEPRITEIADGLLAGLPTDGPVDLMREYAFQIPVQVICELLGVPAEDRDDFSAWSSVLVDDSPADDKNAAMGKLHGYLSDLLERKRTEPDDALLSSLLAVSDEDGDRLSQEELVAMAMLLLIAGHETTVNLIGNGVLALLTHPDQRKLLAEDPSLISSAVEEFLRFDSPVSQAPIRFTAEDVTYSGVTIPAGEMVMLGLAAANRDADWMPEPDRLDITRDASGGVFFGHGIHFCLGAQLARLEGRVAIGRLFADRPELALAVGLDELVYRESTLVRGLSRMPVTMGPRSA
Hydroxides of VD3 detected by HPLC ([3]; ferredoxin and ferredoxin reductase derived from spinach, 10 μM VD3, 30° C.): a reaction proceeds; also recorded: converting VD3 to HVD, DHVD and THVD
Reaction in reconstituted system with putidaredoxin and putidaredoxin reductase ([3]; redox partner derived from Pseudomonas putida): electron transfer reaction did not proceed
Estimated concentration of VDH per culture ([4]; Escherichia coli BL21(DE3)/pVDH-camAB): 113 nM
VDH expression per culture fluid ([4]; Escherichia coli BL21(DE3)/pVDH-thcCD): 258 nM
